Experimental data: the RNAGym collection of RNA variant scans (doi:10.1093/molbev/msab373)

B1: Azoarcus group I ribozyme (parent)
chain: GUGCCUUGCGCCGGGAAACCACGCAAGGGAUGGUGUCAAAUUCGGCGAAACCUAAGCGCCCGCCCGGGCGUAUGGCAACGCCGAGCCAAGCUUCGGCGCCUGCGCCGAUGAAGGUGUAGAGACUAGACGGCACCCACCUAAGGCAAACGCUAUGGUGAAGGCAUAGUCCAGGGAGUGGCGAAAGUCACACAAACCGG

Variants of: B1
Test: reverse-splicing fitness (ratio to wild type); higher = more active; in vitro selection; Mg2+ level not given
Method in brief: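 An in vitro group I ribozyme library with randomized positions was T7-transcribed and gel-purified. In triplicate, 10 pmol RNA in EPPS pH 7.5 was reacted with 50 pmoles of a 30-nt RNA substrate for 1 h at 37 °C across several added MgCl2 levels (1–48 mM), then stopped with EDTA. Products were reverse transcribed from a substrate-complementary primer, PCR-amplified and sequenced (HiSeq 4000). Fitness is a variant's read proportion after selection over that before, normalised to wild type.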

| Variant | reverse-splicing fitness |
| --- | --- |
| GUGCCUUGCGCCGGGAAACCACGCAAGGGAUGGUGUCAAAUUCGGCGAAACCUAAGCGCCCGCCCGGGCGUAUGGCAACGCGGAGCCAAGCUUCGGCGCCUGCGCCGAUGGAGGUGUAGAGACUAGACGGCACCCACCUAAGGCGAACGGUAUGGUGAAGGCAUAGUCUAGGGAGAGGCGAAAGUCACACAAACCGG [C82G A111G A145G C150G C169U U176A] | 0.012 |
| GUGCCUUGCGCCGGGAAACCACGCAAGGGAUGGUGUCAAAUUCGGCGAAACCUAAGCGCCCGCCCGGGCGUAUGGCAACGCGGAGCCAAGCUUCGGCGCCUGCGCCGAUGGAGGUGUAGAGACUAGACGGCACCCACCUAAGGCGAACGGUAUGGUGAAGGCAUAGUCUAGGGAGCGGCGAAAGUCACACAAACCGG [C82G A111G A145G C150G C169U U176C] | 0.0131 |
| GUGCCUUGCGCCGGGAAACCACGCAAGGGAUGGUGUCAAAUUCGGCGAAACCUAAGCGCCCGCCCGGGCGUAUGGCAACGCGGAGCCAAGCUUCGGCGCCUGCGCCGAUGGAGGUGUAGAGACUAGACGGCACCCACCUAAGGCGAACGGUAUGGUGAAGGCAUAGUCUAGGGAGGGGCGAAAGUCACACAAACCGG [C82G A111G A145G C150G C169U U176G] | 0.00803 |
| GUGCCUUGCGCCGGGAAACCACGCAAGGGAUGGUGUCAAAUUCGGCGAAACCUAAGCGCCCGCCCGGGCGUAUGGCAACGCGGAGCCAAGCUUCGGCGCCUGCGCCGAUGGAGGUGUAGAGACUAGACGGCACCCACCUAAGGCGAACGAUAUGGUGAAGGCAUAGUCUAGGGAGCGGCGAAAGUCACACAAACCGG [C82G A111G A145G C150A C169U U176C] | 0.0162 |
| GUGCCUUGCGCCGGGAAACCACGCAAGGGAUGGUGUCAAAUUCGGCGAAACCUAAGCGCCCGCCCGGGCGUAUGGCAACGCGGAGCCAAGCUUCGGCGCCUGCGCCGAUGGAGGUGUAGAGACUAGACGGCACCCACCUAAGGCGAACGAUAUGGUGAAGGCAUAGUCUAGGGAGAGGCGAAAGUCACACAAACCGG [C82G A111G A145G C150A C169U U176A] | 0.0155 |
| GUGCCUUGCGCCGGGAAACCACGCAAGGGAUGGUGUCAAAUUCGGCGAAACCUAAGCGCCCGCCCGGGCGUAUGGCAACGCGGAGCCAAGCUUCGGCGCCUGCGCCGAUGGAGGUGUAGAGACUAGACGGCACCCACCUAAGGCGAACGAUAUGGUGAAGGCAUAGUCUAGGGAGGGGCGAAAGUCACACAAACCGG [C82G A111G A145G C150A C169U U176G] | 0.00674 |
| GUGCCUUGCGCCGGGAAACCACGCAAGGGAUGGUGUCAAAUUCGGCGAAACCUAAGCGCCCGCCCGGGCGUAUGGCAACGCGGAGCCAAGCUUCGGCGCCUGCGCCGAUGGAGGUGUAGAGACUAGACGGCACCCACCUAAGGCGAACGAUAUGGUGAAGGCAUAGUCGAGGGAGUGGCGAAAGUCACACAAACCGG [C82G A111G A145G C150A C169G] | 0.00938 |
| GUGCCUUGCGCCGGGAAACCACGCAAGGGAUGGUGUCAAAUUCGGCGAAACCUAAGCGCCCGCCCGGGCGUAUGGCAACGCGGAGCCAAGCUUCGGCGCCUGCGCCGAUGGAGGUGUAGAGACUAGACGGCACCCACCUAAGGCGAACGAUAUGGUGAAGGCAUAGUCUAGGGAGUGGCGAAAGUCACACAAACCGG [C82G A111G A145G C150A C169U] | 0.0105 |
| GUGCCUUGCGCCGGGAAACCACGCAAGGGAUGGUGUCAAAUUCGGCGAAACCUAAGCGCCCGCCCGGGCGUAUGGCAACGCGGAGCCAAGCUUCGGCGCCUGCGCCGAUGGAGGUGUAGAGACUAGACGGCACCCACCUAAGGCGAACGAUAUGGUGAAGGCAUAGUCAAGGGAGGGGCGAAAGUCACACAAACCGG [C82G A111G A145G C150A C169A U176G] | 0.00692 |
| GUGCCUUGCGCCGGGAAACCACGCAAGGGAUGGUGUCAAAUUCGGCGAAACCUAAGCGCCCGCCCGGGCGUAUGGCAACGCGGAGCCAAGCUUCGGCGCCUGCGCCGAUGGAGGUGUAGAGACUAGACGGCACCCACCUAAGGCGAACGGUAUGGUGAAGGCAUAGUCUAGGGAGUGGCGAAAGUCACACAAACCGG [C82G A111G A145G C150G C169U] | 0.0102 |
| GUGCCUUGCGCCGGGAAACCACGCAAGGGAUGGUGUCAAAUUCGGCGAAACCUAAGCGCCCGCCCGGGCGUAUGGCAACGCGGAGCCAAGCUUCGGCGCCUGCGCCGAUGGAGGUGUAGAGACUAGACGGCACCCACCUAAGGCGAACGGUAUGGUGAAGGCAUAGUCAAGGGAGUGGCGAAAGUCACACAAACCGG [C82G A111G A145G C150G C169A] | 0.00978 |
| GUGCCUUGCGCCGGGAAACCACGCAAGGGAUGGUGUCAAAUUCGGCGAAACCUAAGCGCCCGCCCGGGCGUAUGGCAACGCGGAGCCAAGCUUCGGCGCCUGCGCCGAUGGAGGUGUAGAGACUAGACGGCACCCACCUAAGGCGAACGGUAUGGUGAAGGCAUAGUCGAGGGAGUGGCGAAAGUCACACAAACCGG [C82G A111G A145G C150G C169G] | 0.00774 |
| GUGCCUUGCGCCGGGAAACCACGCAAGGGAUGGUGUCAAAUUCGGCGAAACCUAAGCGCCCGCCCGGGCGUAUGGCAACGCGGAGCCAAGCUUCGGCGCCUGCGCCGAUGGAGGUGUAGAGACUAGACGGCACCCACCUAAGGCGAACGAUAUGGUGAAGGCAUAGUCGAGGGAGCGGCGAAAGUCACACAAACCGG [C82G A111G A145G C150A C169G U176C] | 0.0258 |
| GUGCCUUGCGCCGGGAAACCACGCAAGGGAUGGUGUCAAAUUCGGCGAAACCUAAGCGCCCGCCCGGGCGUAUGGCAACGCGGAGCCAAGCUUCGGCGCCUGCGCCGAUGGAGGUGUAGAGACUAGACGGCACCCACCUAAGGCGAACGAUAUGGUGAAGGCAUAGUCGAGGGAGGGGCGAAAGUCACACAAACCGG [C82G A111G A145G C150A C169G U176G] | 0.006 |
| GUGCCUUGCGCCGGGAAACCACGCAAGGGAUGGUGUCAAAUUCGGCGAAACCUAAGCGCCCGCCCGGGCGUAUGGCAACGCGGAGCCAAGCUUCGGCGCCUGCGCCGAUGGAGGUGUAGAGACUAGACGGCACCCACCUAAGGCGAACGAUAUGGUGAAGGCAUAGUCGAGGGAGAGGCGAAAGUCACACAAACCGG [C82G A111G A145G C150A C169G U176A] | 0.0196 |
